We go through five molecules from US20130224224A1 (Boehringer Ingelheim, published 2013).

The target of assay [1] is T1, human CX3CR1 (human, UniProt P49238 1-355).
T1 construct: overexpressed on CHO, BA/F3 or HEK293T cells; also called huCX3CR1; hCX3CR1
T1 sequence: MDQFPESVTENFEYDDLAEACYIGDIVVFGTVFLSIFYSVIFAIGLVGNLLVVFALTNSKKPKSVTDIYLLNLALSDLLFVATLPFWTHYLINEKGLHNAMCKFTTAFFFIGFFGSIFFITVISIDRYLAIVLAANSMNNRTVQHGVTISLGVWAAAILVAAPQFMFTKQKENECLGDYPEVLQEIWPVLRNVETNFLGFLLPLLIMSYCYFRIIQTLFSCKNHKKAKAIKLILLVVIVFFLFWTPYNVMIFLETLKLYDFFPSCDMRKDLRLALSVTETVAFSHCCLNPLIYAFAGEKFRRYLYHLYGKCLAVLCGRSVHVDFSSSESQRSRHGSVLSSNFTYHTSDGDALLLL
Nature of the assay: fractalkine competition FACS.

Assay [2] deals with T1, human CX3CR1. Nature of the assay: competition FACS, BA/F3-huCX3CR1; competitor alexa647-labeled 66B02. The source says:
A competitive binding experiment was setup in order to determine whether the VHHs bind overlapping epitopes on CX3CR1. For this, the VHH 66B02 labeled with alexa647 was used in a competition FACS on the BA/F3 cells expressing huCX3CR1. Representative VHHs from the three functional families were used as competitors for the binding of the labeled 66B02.

For assay [3], the target named is T1, human CX3CR1. Nature of the assay: fractalkine competition FACS. This is another data set of the same source.
Assay [4] has as its target T1, human CX3CR1. Nature of the assay: cell-based or functional assay.
In assay [5] the target is T2, cynomolgus CX3CR1 (cynomolgus, UniProt P49238 1-355 (human entry)).
T2 construct: transiently expressed on HEK293T cells; also called cyCX3CR1; cyno CX3CR1
T2 chain: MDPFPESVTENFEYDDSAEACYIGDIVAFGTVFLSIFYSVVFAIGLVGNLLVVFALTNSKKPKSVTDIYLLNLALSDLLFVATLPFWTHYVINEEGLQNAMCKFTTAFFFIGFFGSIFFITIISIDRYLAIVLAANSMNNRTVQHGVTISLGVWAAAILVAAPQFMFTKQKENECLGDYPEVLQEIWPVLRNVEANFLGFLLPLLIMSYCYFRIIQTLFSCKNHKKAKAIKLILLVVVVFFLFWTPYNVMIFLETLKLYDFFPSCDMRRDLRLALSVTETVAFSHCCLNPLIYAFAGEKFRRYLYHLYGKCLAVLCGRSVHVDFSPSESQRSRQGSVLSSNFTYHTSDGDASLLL
Nature of the assay: A647-fractalkine competition FACS, HEK293T cynomolgus CX3CR1. From the text:
(§1) Periplasmic extracts were screened in a human CX3CR1/human Fractalkine FACS competition assay to assess the blocking capacity of the expressed VHHs. Human CX3CR1 was presented on CHO cells overexpressing CX3CR1. Both a setup using cells harvested from an actively growing culture and a setup using frozen cells was used. As a detection reagent labeled fractalkine was used (R&D Systems, Minneapolis, Minn., USA) labeled with alexa647 (A647-Fractalkine) at a degree of labeling of 1. To setup the assay, first a titration series of the labeled fractalkine was performed on the CHO-huCX3CR1 cells in order to determine the EC50 value for binding. Initially screening was performed at a higher concentration of fractalkine (3 nM) to increase the assay robustness. To increase the sensitivity of the screening to a maximum, the EC30 concentration (1 nM) was chosen for subsequent screening. In brief 50 μl of periplasmic extract was added to 6 nM labeled fractalkine (50 μ;) and 200 000 CHO-huCX3CR1 cells. After one hour incubation at 4 C, cells were washed three times before read out was performed on a FACS Array (Becton Dickinson). First a gate was set on the intact cells as determined from the scatter profile. Next, dead cells were gated out by their fluorescence profile from the PI stain (Sigma, St Louis, US). The fluorescence profile from the alexa647 label was determined for each sample and used for calculation of blocking capacity. As controls, conditions were taken along where there was no VHH present in the peri extract or a known irrelevant VHH and samples were included where excess cold fractalkine was included. For each sample the percentage block was determined using the control samples to determine the assay window.
(§2) For later identified VHHs, a human Fractalkine competition FACS was set up using human or cynomolgus CX3CR1 expressed in HEK293T cells. Both the human and the cynomolgus receptor was transiently transfected in HEK293T cells and transfections were matched by the binding of the labeled ligand, human fractalkine. The competition was evaluated using the EC30 concentration of fractalkine and as such obtained IC50 values are a good estimate of the Ki value, a measure for affinity (Table 22). The experiment was performed as described in Example 4.

The target in assay [6] is T1, human CX3CR1. Nature of the assay: A647-fractalkine competition FACS, HEK293-huCX3CR1.
Source text: as §1
(§3) The blocking capacity towards the ligand fractalkine of the VHHs was evaluated in a human CX3CR1 competition FACS as outlined in Example 4. Either CHO-huCX3CR1 cells, BA/F3-huCX3CR1 cells or transiently transfected HEK293T cells were used. The amount of labeled ligand used in the different competition setups was also varied. The IC₅₀ values for VHHs blocking the interaction of human fractalkine to human CX3CR1 are depicted in Table 19.

For assay [7], the target named is T1, human CX3CR1. Nature of the assay: A647-fractalkine competition FACS, HEK293T human CX3CR1.
Source text: as §1, §2

The target in assay [8] is T2, cynomolgus CX3CR1. Nature of the assay: A647-fractalkine competition FACS, cynomolgus against human CX3CR1.
Source text: as §1, §2

Assay [9] deals with T1, human CX3CR1. Nature of the assay: cell-based or functional assay. The source holds these as a separate data set.
Assay [10] has as its target T1, human CX3CR1. Nature of the assay: fractalkine competition FACS. This is another data set of the same source.
For assay [11], the target named is T1, human CX3CR1. Nature of the assay: A647-fractalkine competition FACS, CHO-huCX3CR1.
Source text: as §1, §3

Assay [12] addresses T1, human CX3CR1. Nature of the assay: periplasmic extract, A647-fractalkine competition FACS, CHO-huCX3CR1.
Source text: as §1

Assay [13] has as its target T1, human CX3CR1. Nature of the assay: A647-fractalkine competition FACS, BA/F3-huCX3CR1.
Source text: as §1, §3

B1: CX3CR1BIIPMP66B02 (VHH)
VHH: EVQLVESGGGSVQAGESLRLSCAASGSIFSSNAMAWYRQAPGKRRDLVAAINSVGVTKYADSVKGRFTISRDNAKNTVYLQMNSLKPEDTAVYYCTSDPRRGWDTRYWGQGTQVTVSS
modifications: alexa647 label where used as labeled competitor (Table 23)
notes: also called CX3CR1BII66B02; C100CX3CR1BII66B02; not shown: C-terminal c-myc and His6 tags
As to B1, the “% block” value was determined as 98% with human CX3CR1 [1]; 100% with human CX3CR1 [2]; 101% with human CX3CR1 [3]; 97% in the assay with cynomolgus CX3CR1 [5]; 102% in the assay with human CX3CR1 [6]; 102% in the assay with human CX3CR1 [7]. Also, the “% block” value with human CX3CR1 [10] worked out at 98%. For the same molecule, the IC50 (usually the concentration that inhibits the measured activity by half) with human CX3CR1 [1] is 2.5 nM; with human CX3CR1 [2] it was 1.5 nM; with human CX3CR1 [3], 2.6 nM; in the assay with cynomolgus CX3CR1 [5], 19 nM; with human CX3CR1 [6], 2.5 nM; in the assay with human CX3CR1 [7], 2.5 nM. This molecule gave an IC50 in the assay with human CX3CR1 [10] of 2.5 nM. In addition, the “% block, ligand induced chemotaxis” value with human CX3CR1 [4] was 91%. Besides, the “IC50, ligand induced chemotaxis” value in the assay with human CX3CR1 [4] stood at 36 nM. For the same molecule, the “ratio (cynomolgus/human IC50)” value with cynomolgus CX3CR1 [8] turned out to be 7.5. For the same molecule, in the assay with human CX3CR1 [9], the “% block, fractalkine induced chemotaxis” value was determined as 87%. In the assay with human CX3CR1 [9], the “IC50, fractalkine induced chemotaxis” value came to 20 nM.

B2: CX3CR1BII00307 (VHH)
VHH: DVQLVESGGGLVQPGGSLRLSCAASGSIFSSTAMAWYRQAPGKRRDLVAAISTVGVTKYADSVKGRFTISRDNSKNTVYLQMNSLRPEDTAVYYCTSDPRRGWDTRYWGQGTLVTVSS
notes: also called CX3CR1BII307
In the case of B2, in the assay with human CX3CR1 [1], the “% block” value worked out at 97% and the IC50 amounted to 1.9 nM. Besides, in the assay with human CX3CR1 [4], the “% block, ligand induced chemotaxis” value is 100% and the “IC50, ligand induced chemotaxis” value is 63 nM.

B3: CX3CR1BII00306 (VHH)
VHH: DVQLVESGGGLVQPGGSLRLSCAASGSIFSSTAMAWYRQAPGKRRDLVAAISSVGVTKYADSVKGRFTISRDNSKNTVYLQMNSLRPEDTAVYYCTSDPRRGWDTRYWGQGTLVTVSS
notes: also called CX3CR1BII306
In the case of B3, in the assay with human CX3CR1 [1], the “% block” value came to 97% and the IC50 was found to be 1.7 nM. In the assay with human CX3CR1 [4], the “% block, ligand induced chemotaxis” value was found to be 95% and the “IC50, ligand induced chemotaxis” value amounted to 63 nM.

B4: CX3CR1BIIPMP54G3 (VHH)
VHH: EVQLVESGGGSVQAGESLRLSCAASGSIFSSNAMAWYRQAPGKQRDLVALINSVGITKYADSVKGRFTISRDNAKNTVYLQMNSLKPEDTAVYYCTSDPRRGWDTRYWGQGTLVTVSS
notes: also called 54G03; not shown: C-terminal c-myc and His6 tags
Turning to B4, the “% block” value stood at 107% with human CX3CR1 [11]; 89% in the assay with cynomolgus CX3CR1 [5]; 89% with human CX3CR1 [6]; 89% in the assay with human CX3CR1 [7]; 74.7% with human CX3CR1 [12]; 98% in the assay with human CX3CR1 [13]. Moreover, the IC50 with human CX3CR1 [11] was 56 nM; in the assay with cynomolgus CX3CR1 [5], 470 nM; in the assay with human CX3CR1 [6] it was 270 nM; with human CX3CR1 [7] it was 270 nM; in the assay with human CX3CR1 [13], 98 nM. For the same molecule, in the assay with cynomolgus CX3CR1 [8], the “ratio (cynomolgus/human IC50)” value was found to be 1.74. In addition, in the assay with human CX3CR1 [9], the “% block, fractalkine induced chemotaxis” value was 40%.

B5: CX3CR1BII00308 (VHH)
VHH: DVQLVESGGGLVQPGGSLRLSCAASGSIFSSNAMAWYRQAPGKRRDLVAAINSVGVTKYADSVKGRFTISRDNSKNTVYLQMNSLRPEDTAVYYCTSDPRRGWDTRYWGQGTLVTVSS
notes: also called CX3CR1BII308
For the molecule B5, in the assay with human CX3CR1 [1], the “% block” value stood at 97% and the IC50 stood at 1.6 nM. Also, in the assay with human CX3CR1 [4], the “% block, ligand induced chemotaxis” value amounted to 89% and the “IC50, ligand induced chemotaxis” value came out at 44 nM.
